Conditions: Escherichia coli (strain K12); pH 9; Thermal; DSC; Glycine 50mM; reversible: yes; whole UniProt chain shown

B1: Divalent-cation tolerance protein CutA wild type, P69488 (protein)
chain: MLDEKSSNTASVVVLCTAPDEATAQDLAAKVLAEKLAACATLIPGATSLYYWEGKLEQEYEVQMILKTTVSHQQALLECLKSHHPYQTPELLVLPVTHGDTDYLSWLNASLR
Tm: 85.6 °C
unfolding enthalpy (calorimetric): 208 kcal/mol

Reference: FireProtDB (doi:10.1038/srep15545)
